Experimental data published in patent US20220175839.

Assays:
Assay in all cases: cell_activity
TALEN 103113 (synthetic) = details: pair with 103114; K562, 400 ng
TALEN 103119 (synthetic) = details: pair with 103120 (not in Table 2B); K562, 400 ng
TALEN 103107 (synthetic) = details: pair with 103108; K562, 400 ng
TALEN 103109 (synthetic) = details: pair with 103110; K562, 400 ng
TALEN 103114 (synthetic) = details: pair with 103113; K562, 400 ng
TALEN 103111 (synthetic) = details: pair with 103112; K562, 400 ng
TALEN 103112 (synthetic) = details: pair with 103111; K562, 400 ng
TALEN 103115 (synthetic) = details: pair with 103116; K562, 400 ng
TALEN 103108 (synthetic) = details: pair with 103107; K562, 400 ng
TALEN 103110 (synthetic) = details: pair with 103109; K562, 400 ng
TALEN 103117 (synthetic) = details: pair with 103118; K562, 400 ng
TALEN 103116 (synthetic) = details: pair with 103115; K562, 400 ng
TALEN 103118 (synthetic) = details: pair with 103117; K562, 400 ng
TALEN 103106 (synthetic) = details: pair with 103105; K562, 400 ng

ATGAGTATGCCTGCCGTGTGA (double strand) [TALEN 103113 site]
activity (TALEN 103113 (synthetic)): 26.6 % indel

ATGTGACTTTGTCACAGCCCA (double strand) [TALEN 103119 site]
activity (TALEN 103119 (synthetic)): 57.7 % indel

ATTCACCCCCACTGAAAAAGA (double strand) [TALEN 103107/103109 site]
activity (TALEN 103107 (synthetic)): 4.2 % indel | activity (TALEN 103109 (synthetic)): 8 % indel

CTATCTTGGGCTGTGACAAAG (double strand) [TALEN 103114 site]
activity (TALEN 103114 (synthetic)): 26.6 % indel

CTGAAAAAGATGAGTATGCCT (double strand) [TALEN 103111 site]
activity (TALEN 103111 (synthetic)): 26.5 % indel

CTGTGACAAAGTCACATGGTT (double strand) [TALEN 103112 site]
activity (TALEN 103112 (synthetic)): 26.5 % indel

GTATGCCTGCCGTGTGAACCA (double strand) [TALEN 103115 site]
activity (TALEN 103115 (synthetic)): 66.1 % indel

GTCACATGGTTCACACGGCAG (double strand) [TALEN 103108/103110 site]
activity (TALEN 103108 (synthetic)): 4.2 % indel | activity (TALEN 103110 (synthetic)): 8 % indel

GTGTGAACCATGTGACTTTGT (double strand) [TALEN 103117 site]
activity (TALEN 103117 (synthetic)): 45.7 % indel

TTAACTATCTTGGGCTGTGAC (double strand) [TALEN 103116 site]
activity (TALEN 103116 (synthetic)): 66.1 % indel

TTACCCCACTTAACTATCTTG (double strand) [TALEN 103118 site]
activity (TALEN 103118 (synthetic)): 45.7 % indel

TTCACACGGCAGGCATACTCA (double strand) [TALEN 103106 site]
activity (TALEN 103106 (synthetic)): 14.2 % indel
